We go through six sequences from a protein production outcome set (Wang et al. 2014).

This data set can be described thus: label from the status in PepcDB records.

As for “MKLPHALSHWFPHKYAIDAKRLGDERTLAWSNLGYWADTSDYKTACRQLADGLADAVQLSSTDRLLDLGCGQGASLQHWVEHYQIQSLCAVELQLDHVKRIQHAFPQLEKMIQGSFLDLRPDTFKPHFDVVMCIDAAYHSALTSFLTAVGSVLKSKGRLGFHYLLLSEKWTQLPVWQRQKYKYLLKAADVELDDLADVTTTEHTLRAQGFDQIQIVDMTTDVFGGFARYMASRPYHSKQNIDERKIRATAKLCQYLCDQGIVRYVQIAATKQ”, the protein production entry is “failed”. For “MKLPKALNEATAGAALKYHIKRALERSHSISDFSKNLELSTQKSHFSNNTLKIIEELNNGVKQASEEIKEKARDFSNQKLTNEQIKDLLNNAEIPTSGRDAITFGVNNLNPEIVEFLHKNNKKMIIEKASNKELELLKDANFKHPENIRASLDHDAIAHILKRHGVNSVNVRNGEIPITNEDIANYRYIVNNADAILRTLDNENKELISAFKQINGYAVVVEQAINKKNELVLKTMYKSKGDYKDNNAYKKFSSTHTLNADAKVNHRLSSYSGATENTTQKDLIDQENLLKTSENLNESTPKPTNLSPLEQANAEKLAKLESEKLESEKEFLKAKEQEATRKAALKKKLEHERGNAGNIESQTKIEVGEDIPTQTQAQLPKSRVRLNEREIYDLDYAIVKAKDLKPSFTTGGTQKRTDMNEEQIKSIAENFDPKKIFGSGGFEDLPIILHDGQVIAGNHRIQGMLNFTPKSRFSYERAIKEYYHIDLKPDELLVRVPHKRLNNTEINNLAASSNQGRFNSESDHAIAVLSHYEAKLKELDQKLDADSIYSLKNIVAKNLNFDKATHPNVTDSNLALLMFNMPRTKTQGIELLNRWKKEFSNDIKSYEKVKKMFVDNAGSFHNLIHDLNFPKVSLNAYLSDIMDRSFANLKNYQSTSESLKDLSEKFYKTSSLEMFEKSDQSTSDISEILGGAIARFARFDDPSKALFEALRSDNIKKGLKDYKIADVTKDMFNADSKEFKDIDIYDFTHYLLMVNREPNENNPILKRLIEAVKDMQKESEKGIKQKLETPSEWGHNYSEFKGDGLGAINKLLETKKGFVAGAFHKEGLGDIDLVYGNSKYGLEHIFNRRESDAIDKGMSKEEAKKYALKIINNIPNIISNGKLSKDNLGRLSIEFENQRVGLNDSWKGETLNNRWVITSYEIDKSRNGLIESPLAPNYKGKDTNPLNLDSPNPTTKN”, the protein production entry was “failed”.

Take “MKLSSNNAETMESLRSERNQYRILVDITNSVLAHLDMDGLISEVSKEIHRFFGLNHISLMLCRTSSQNSHEGILYSSRYQTGKSVIRQQRKFSSANNKAEEIIHQNKPVLIDINKEDQDDVLIKRLVKQNMQTALLLPLAFNRKPLGLLILAHEISSVFTEETCQLLQQIAARIGIAIENAAAYEEITHLKDS”: the protein production result is given as “failed”.

Turning to “MKLTLRKKLLEKVENTTETPMLILSVVYVVVALLPDIAVLSPDDLEFLDGLLWIVWGIFATELLVKIFVSPKPLQYMMQNWPDVLIVAMPFLRPLRFLRILLVLPKAWRQTKSVLRQKTFSFIGLTSLSTVLLSAAFVYLVEKGTPSPINSYADALWWAMSTITTVGYGDMYPVTGFGRGVAVFLMLTGITLFGLLTASVASFFVEDDTAKQDHLSLNLLLEKNQQLETQLNQLVETQQPRKRFHLASYRRQLAERETVRKNQKPKRRRIKLPSQDNRNA”, the protein production result is listed as “failed”.

With “MKLTPKELDKLMLHYAGELAKKRKEKGIKLNYVEAVALISAHIMEEARAGKKTAAELMQEGRTLLKPDDVMDGVASMIHEVGIEAMFPDGTKLVTVHTPIEANGKLVPGELFLKNEDITINEGKKAVSVKVKNVGDRPVQIGSHFHFFEVNRCLDFDREKTFGKRLDIASGTAVRFEPGEEKSVELIDIGGNRRIFGFNALVDRQADNESKKIALHRAKERGFHGAKSDDNYVKTIKE”, the protein production result is “failed”.

In the case of “MKLVEHYIMRGTRRLVLIIVGFLIFIFASYSAQRYLTEAANGTLALDVVLDIVFYKVLIALEMLLPVGLYVSVGVTLGQMYTDSEITAISAAGGSPGRLYKAVLYLAIPLSIFVTLLSMYGRPWAYAQIYQLEQQSQSELDVRQLRAKKFNTNDNGRMILSQTVDQDNNRLTDALIYTSTANRTRIFRAGSVDVVDPSPEKPTVMLHNGTAYLLDHQGRDDNEQIYRNLQLHLNPLDQSPNVKRKAKSVTELARSAFPADHAELQWRQSRGLTALLMALLAISLSRVKPRQGRFSTLLPLTLLFIAIFYGGDVCRTLVANGAIPLIPGLWLVPGLMLMGLLILVARDFSLLQKFSR”, the protein production entry is “failed”.
